Experimental data: patent publication US8115059B1, “Gene expression modulation system for use in plants and method for modulating gene expression in plants” (University of Kentucky Research Foundation, priority 2005, dated 2012)

Assays:
[1] = target: GAL4 DBD:CfEcR fusion protein (Choristoneura fumiferana); test: cell-based or functional assay
ms45 mutant = conditions: transgenic ms45 maize with Ms45 under EcR-based switch; cited from earlier work

## VP16 AD:LmRXR triple mutant A62S:T81H:V123I (Lm-7) fusion protein (receptor)
[1]
  methoxyfenozide concentration at maximum luciferase activity, two-hybrid gene switch, tobacco protoplasts (nM methoxyfenozide): 80

## COc1cccc(C(=O)NN(C(=O)c2cc(C)cc(C)c2)C(C)(C)C)c1C [methoxyfenozide]
ms45 mutant
  restoration of male fertility: able to restore male fertility
